PMC3937519

Columns and labels:
[1] = molecular target: Vif H108A-CBF-β-Elo B/C complex (HIV-1 NL4.3 | human | not stated) (UniProt Q13951); experiment: ITC
[2] = molecular target: wild-type Vif-CBF-β-Elo B/C complex (HIV-1 NL4.3 | human | not stated) (UniProt Q13951); experiment: ITC
[3] = molecular target: Vif H27A-CBF-β-Elo B/C complex (HIV-1 NL4.3 | human | not stated) (UniProt Q13951); experiment: ITC
[4] = molecular target: Vif V25A-CBF-β-Elo B/C complex (HIV-1 NL4.3 | human | not stated) (UniProt Q13951); experiment: ITC
[5] = molecular target: HIV-1 NL4.3 Vif Y30A, recombinant (E. coli) (HIV-1 NL4.3); experiment: pull-down
[6] = molecular target: HIV-1 NL4.3 Vif H27A, recombinant (E. coli) (HIV-1 NL4.3); experiment: pull-down
[7] = molecular target: HIV-1 NL4.3 Vif M29A, recombinant (E. coli) (HIV-1 NL4.3); experiment: pull-down
[8] = molecular target: HIV-1 NL4.3 Vif H28A, recombinant (E. coli) (HIV-1 NL4.3); experiment: pull-down

Row | Substance | Kd [1] [nM] | dH [1] [kcal/mol] | Kd [2] [nM] | dH [2] [kcal/mol] | Kd [3] [nM] | Kd [4] [nM] | percent reduction of Cul5 binding against wild-type Vif [5] [%] | percent reduction of Cul5 binding against wild-type Vif [6] [%] | percent reduction of Cul5 binding against wild-type Vif [7] [%] | percent reduction of Cul5 binding against wild-type Vif [8] [%]
1 | Cul5-NTD (residues 1 to 393, V341R, L345D) (from UniProt Q93034 1-393) (domain or fragment) | 36 | -4 | 5.9 | -9 | 660 | 511 | – | – | – | –
2 | N-terminal Cul5, co-expressed in E. coli (Cul5/Vif pET-Duet) (domain or fragment) | – | – | – | – | – | – | > 60 | > 60 | > 60 | 20
